Substitutions are numbered along the chain they refer to.
B1: ADI-36674 (antibody, V domains shown)
VH: EVQLLESGGGLVKPGGSLRLSCAASGFKFRSYSMNWVRQAPGKGLEWVSSISSSSSYVDYAGSLKGRFTISRDNAENSLYLQMNSLRAEDTAMYYCARAGSVPVAGTYNDYWGQGTLVTVSS
VL: QSVLTQPPSVSGAPGQRVTISCTGSSSNIGAGYDVHWYQHLPGTAPKLLIHGNNNRPAGVPDRFSGSKSGTSASLVITGLQADDEADYYCQSYDRSLSVLFGGGTKVTVL
B2: ADI-41222 (antibody, V domains shown)
VH: QVTLKESGGGVVQPGRSQRLSCTASGFNFHNYAMHWVRQAPGKGLEWVAVISYDGSNKNFADSVKGRFTISRDNSKNTLNLQMNNLRAEDTAVYYCVRDIVRGSPLFDYWGQGTLVTVSS
VL: QPVLTQPPSLSVAPGQTAWITCGGNNIGSKIVHWYQQKPGQAPVVVVYDDDDRPSGIPERFSGSNSGNTATLTIRRVEVGDEADYYCQVWDRSSDNYVFGTGTKVSVL
B3: ADI-41594 (antibody, V domains shown)
VH: EVQLVESGGGLVKPGGSLRLSCAASGFSFSSYYMNWVRQAPGKGLEWVSSISPSSSYTNYADSVKGRFTISRDNAKDSLYLQMNSLRAEDTAVYYCARDGLLGITIFGVVQDYWGQGTLVTVSS
VL: QSVVTQPPSVSGAPGQRVTISCTGSSSNIGAGYDVHWYQQLPGTAPKLLIYGNTNRPSGVPDRFSASKSGTSASLAITGLQAEDEADYYCQSYDSSLSVVFGGGTKLTVL
B4: ADI-41249 (antibody, V domains shown)
VH: QVQLVQSGAEVKKPGESLKISCQVSRDTSTTYWIGWVRQMPGKGLEWMGIIFPGDSDTRYSPSFQGQVTISADKSIMTAYLQLTSLKASDTAMYYCATQALRGAFDIWGQGTMVTVSS
VL: DIRLTQSPSSLSASVGDRVTITCQASQDISNYLNWYQQKPGKAPKLLIYDASYLETGVPSRFSGSGSGTDFTFTISSLQPEDFATYYCQQYDDLLFTFGPGTKLEIK
B5: ADI-41232 (antibody, V domains shown)
VH: QVQLVQSGAEVKKPGASVKVSCKASGYTFTHYGISWVRQAPGQGLEWMAWISAYNGNTNYAQKLQDRVTVTTDTSTSTAYMELRSLRSDDTALYYCARDSMGGTTLFDYWGQGTLVTVSS
VL: DIVLTQTPLSLPVTLGQPASISCRSSQSLVYSDGNTYLNWFQQRPGQSPRRLIYKVSNRDSGVPDRFTGSGSGTDFTLKISRVEAEDVGVYYCMQGTHWPPMYTFGQGTKLEIK
B6: ADI-36670 (antibody, V domains shown)
VH: QVQLVQSGAEVKKPGSSVKVSCKASGGTFSTYTINWVRQAPGQGLEWMGRITPSLGVPLSAQKFQGRITISADKSTTTAYMELSSLGSEDTAVYYCASLNYYDTTDYYLGYSDSWGQGTLVTVSS
VL: DIVLTQTPATLSVSPGERATLSCRASHSVSNNLAWYQQKPGQAPRLLIYSASTRATGIPARFSGRGSGTEFTLTISSLQPEDFAVYYCQQYNNWPPEYTFGQGTKVDIK
B7: ADI-41563 (antibody, V domains shown)
VH: QVQLVESGPGLVKPSETLSLTCTVSDDSITNNFWTWIRQPPGKGLEWIGYIYYSGSTNYNPSLKSRITMSVDLSKNQFSLKLSSVTAADTAVYYCARLTSGGVDYWGQGTLVTVSS
VL: QSVLTQPPSLSGAPGQRVTISCTGSSSNIGADYHVHWYQQLPGTAPKLLIYQNTNRPSGVPDRFSASKSGTSVSLAITGLQAEDEADYYCQSYDSSLSAWVFGGGTKLTVL
B8: ADI-41344 (antibody, V domains shown)
VH: EVQLVESGGGLVKPGGSLRLSCAASGSSFSSYYMNWVRQAPGKGLEWVSSISSSSTYIDYADSVKGRFTISRDNAKNSLFLQMNSLRAEDTAVYYCARVSSPMIRGYYLDYWGQGTLVTVSS
VL: QPVLTQPPSVSGAPGQRVTISCTGSSSNIGAGYDVHWYQQLPGTAPKLVIHGNSNRPSGVPDRFSGSKSGTSASLAITGLQGEDEADYYCQSYDSSLSGSVFGGGTKLTVL
B9: ADI-21054 (antibody, V domains shown)
VH: QVQLVESGGGVVQPGRSLRLSCAASGFSFSNYGMHWVRQAPGKGLEWVVGISFDGSYIFHGGSVTGRFNISRDNSKNTLYLQVNSVRAEDTAVYYCARDPQYYDDWSGYSGLLHYYLYMDVWGKGTTVTVSS
VL: DIQLTQSPSTLSASVGDRVTITCRASQSIGTSLAWYQQIPGKAPKLLIYRASSLESGVPSRFSGGGSGTQFTLTISSLQPDDFATYYCQQYNNYSPTFGQGTKLEIK
B10: ADI-21042 (antibody, V domains shown)
VH: EVQLVESGPRLVKPSQTLSLTCNVSGVPVNTGGYYWSWIRRHPIKGLEWIGYIYYSGSTHYNPSLRGRATMSVDTSKNQFSLRLSSVTAADTAVYYCAKDTITVLRGVAKKGVFDPWGQGILVTVSS
VL: DIQMTQSPSTLSASVGDRVIITCRASQSISSWLAWYQYKPGKAPNLLIYKATTLDSGVPSRFSGSGSGTEFTLTISSLQPDDFATYYCQQYDSYPTFGQGTKVEIK
notes: also called Ab 290
B11: ADI-21055 (antibody, V domains shown)
VH: EVQLVESGGGVVQPGRSLRLSCVGSGFTFSRYGMQWVRQAPGKGLEWAAVIWNDGSNEHYADSVKGRFTISRDNSKNTMYLQMNSLRAEDTALYYCAREGEYSSSWSHWSYLDLWGRGTLVTVSS
VL: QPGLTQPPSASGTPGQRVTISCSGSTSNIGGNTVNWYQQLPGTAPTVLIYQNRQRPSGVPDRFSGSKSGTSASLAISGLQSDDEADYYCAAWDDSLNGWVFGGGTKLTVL
B12: ADI-21046 (antibody, V domains shown)
VH: EVQLVESGAEAKKPGESLRISCTVSGYSFSKYWVGWVRQTPGKGLEWMGIIDPTDSDTRYSPSFQGQVTISVDNSINTAYLQWSSLKASDTAIYYCARRGQAKCVGNCPRDFMDVWGKGTTVTVSS
VL: SYVLTQPPSVSGAPGQRVTISCAGSSSNIGAGYEVHWYQQLPGTAPKLLIYANRNRPSGVPDRFSGSRSGTSASLAISGLQAEDEADYYCQSYDNNLSGSWVFGGGTKLTVL
B13: ADI-21039 (antibody, V domains shown)
VH: EVQLVQSGAEVKKPGASVKVSCKASGYTFISYYIHWVRQAPGQGLEWMGVINPSGGITDYAPKFQGRVSMTRDTSTRTVYLELSSLRSDDTAVYYCARDLCITTSCPRYYDYAWRSYRSEGYFDSWGQGTLVTVSS
VL: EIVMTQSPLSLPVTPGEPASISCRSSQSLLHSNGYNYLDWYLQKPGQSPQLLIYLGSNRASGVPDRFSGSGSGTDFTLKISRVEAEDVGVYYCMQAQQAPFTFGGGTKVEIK
B14: ADI-21062 (antibody, V domains shown)
VH: EVQLLESGGGLVKPGGSLRLSCAASGFTFSDYDMIWVRQAPGKGLEWVSSISRGSDYIYYADSLKGRFTISRDNARNSVTLQMNSLRAGDTALYFCARAELLDSGGYYLYYFDHWGQGTLVTVSS
VL: DIRMTQSPSSLSASVGDRVTITCRASQIIASYVNWYQKKPGKAPKVLIYAASRLQNGVPSRFSGSGSGTEFTLTISSLQPEDFATYYCQQSYSTSFTFGQGTKVDIK
notes: also called Ab 310
B15: ADI-21047 (antibody, V domains shown)
VH: QVQLQQWGAGLLKPSETLSLTCAVYGGSFSGKYWSWIRQPPGKGLEWIGEFNHDGTTYYNPSLKSRVTISADTPKNQFSLTLHSVTAADTAVYYCARLTILSDWGQGTLVTVSS
VL: B4 VL with L4M, N34H, Y53N, S76H, F83L, D92Y, L95P, F96R, P100Q
B16: ADI-21043 (antibody, V domains shown)
VH: QVQLVQSGAEVKKPGASVKVSCKASGYTFTSYGITWVRQAPGQGLEWMGWISTYNGKTNYAQKFKGRVTMTTDTSTSTAYVELTSLRSDDTAVYYCAREFPTRIVDSFYMDVWGKGTTVTVSS
VL: SYELTQPPSVSVAPGQTARITCGGSNIGSETVHWYQQKPGQAPVLVVYGDSDRPSGIPERFSGSNSGNTATLTISRVEAGDEADYYCQVWDSRSDDFHVFGSGTKLTVL
B17: ADI-21061 (antibody, V domains shown)
VH: QVQLVQSGAEVKKPGSSVKVSCKASGGTFSNYPISWVRQAPGHGLEWMGRVVPTVGLANYAQNLQGRVTITADTSTNTVYMELRSLRSEDTGLYYCARRAVVDTYAFDIWGQGTLVTVSS
VL: QSALIQPASVSGFPGQSITISCTGASSDVGGYNFVSWYQQHPGKAPKLIIYEVTKRPSGVSNRFSGSESGNTASLTISGLQAEDEADYYCSSFRYTSSIVYVFGSGTKVTVL
B18: ADI-19497 (antibody, V domains shown)
VH: QVQLVQSGAEVKKPGASVKVSCKASGYTFTSYYMHWVRQAPGQGLEWMGIINPSGGSTSYAQKFQGRVTMTRDTSTSTVYMELSSLRSEDTAVYYCSRGYSYGYDYWGQGTLVTVSS
VL: NFMLTQPHSVSESPGKTVTISCTRSSGSIASNYVQWYQQRPGSSPTTVIYEDNQRPSGVPDRFSGSIDSSSNSASLTISGLKTEDEADYYCQSYDSSNWVFGGGTKLTVL
notes: full-length IgG
B19: ADI-19478 (antibody, V domains shown)
VH: QVQLVESGPGVVKPSETLSLTCTVSGGPVSSRSYYWGWIRQPPGKGLEWIGSIYYSGSTYYNTSLKSRVTISVDTSKNQFSLKLSSVTAADTAVYYCAKLQYSTSGFDYWGQGTLVTVSS
VL: QPVLTQPPSVSEAPRQRVTISCSGSSSNIGNNAVSWYQQLPGKAPKLLIYYDDLVPSGVSDRFSGSKSGTSASLAISGLQSEDEADYYCAAWDDSLNGVVFGGGTKLTVL
notes: full-length IgG; also called Ab 180

The binders below were run against RSV F on RSV subtype A virus (RSV-A2) (Respiratory Syncytial Virus, subtype A, …, UniProt P03420 26-574) (assay: cell-based or functional assay).

| Binder | Neutralization - RSV A2 IC50 (pM) | neut IC50 (ug/ml) subtype A (wright) [µg/mL] |
| --- | --- | --- |
| B1 | 190 | 0.014 |
| B2 | 39.9 | 0.016 |
| B3 | 208 | 0.041 |
| B4 | 51.7 | 0.006 |
| B5 | 104 | 0.025 |
| B6 | 141 | 0.008 |
| B7 | 139 | 0.032 |
| B8 | 229 | 0.064 |

What follows are binders tested against T1, RSV postfusion F (postF), subtype A (respiratory syncytial virus, subtype A, UniProt P03420 26-513) (assay: BLI, IgG).
T1 construct: also called F ΔFP; Postfusion subtype A

| Binder | Kd [nM] |
| --- | --- |
| B9 | 0.372 |
| B10 | 0.287 |
| B11 | 0.185 |
| B12 | 0.187 |
| B13 | 0.24 |
| B14 | 0.236 |
| B15 | 0.29 |
| B16 | 1.65 |
| B17 | 0.142 |

What follows are binders tested against T2, RSV postfusion F (postF), subtype B (respiratory syncytial virus, subtype B) (assay: BLI, IgG).
T2 construct: also called F ΔFP; Postfusion subtype B

| Binder | Kd [nM] |
| --- | --- |
| B9 | 0.306 |
| B10 | 0.398 |
| B11 | 4.35 |
| B12 | 0.224 |
| B13 | 6.31 |
| B14 | 0.417 |
| B15 | 0.262 |
| B16 | 1.93 |
| B17 | 2.48 |

Each binder was assayed against T3, RSV postfusion F (postF), subtype B (respiratory syncytial virus subtype B) (assay: BLI, IgG).
T3 construct: also called Postfusion subtype B

| Binder | Kd [nM] |
| --- | --- |
| B18 | 13.4 |
| B19 | 0.713 |

These binders were tested against RSV prefusion F (preF), subtype A (respiratory syncytial virus, subtype A, UniProt P03420 26-513) (assay: BLI, IgG).

| Binder | Kd [nM] |
| --- | --- |
| B9 | 0.185 |
| B10 | 2.96 |
| B11 | 1.1 |
| B12 | 1.66 |
| B13 | 1.71 |
| B14 | 1.24 |
| B15 | 2.11 |
| B16 | 0.111 |
| B17 | 1.1 |

The binders below were run against RSV prefusion F (preF), subtype B (respiratory syncytial virus, subtype B) (assay: BLI, IgG).

| Binder | Kd [nM] |
| --- | --- |
| B9 | 0.139 |
| B10 | 1.18 |
| B11 | 2.98 |
| B12 | 0.694 |
| B13 | 12.7 |
| B14 | 0.827 |
| B15 | 0.756 |
| B16 | 0.154 |
| B17 | 2.76 |
